From article PMC2877795, “Laminin chain assembly is regulated by specific coiled-coil interactions” (Journal of Structural Biology, 2010)

T1: β2γ1 complex of the recombinant mouse laminin coiled-coil fragments (mouse, UniProt Q61292 1575-1799; P02468 1362-1607)
T1 construct: two residues (GlySer) left from the protease recognition site after thrombin cleavage; laminin β2 chain, mouse, residues 1575-1799 of the native chain; as m7; laminin γ1 chain, mouse, residues 1362-1607 of the native chain; as m9; in the αβγ tests all three chains were mixed, the βγ complex was not isolated beforehand; source: mixture of the purified E. coli fragments; not shown: 6xHis, …
T1 sequence 1: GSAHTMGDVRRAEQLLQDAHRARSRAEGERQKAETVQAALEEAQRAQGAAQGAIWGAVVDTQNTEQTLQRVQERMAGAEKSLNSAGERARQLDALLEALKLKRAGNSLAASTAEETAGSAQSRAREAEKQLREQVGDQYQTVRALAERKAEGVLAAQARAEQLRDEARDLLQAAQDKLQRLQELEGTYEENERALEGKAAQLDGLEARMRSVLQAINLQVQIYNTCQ
T1 sequence 2: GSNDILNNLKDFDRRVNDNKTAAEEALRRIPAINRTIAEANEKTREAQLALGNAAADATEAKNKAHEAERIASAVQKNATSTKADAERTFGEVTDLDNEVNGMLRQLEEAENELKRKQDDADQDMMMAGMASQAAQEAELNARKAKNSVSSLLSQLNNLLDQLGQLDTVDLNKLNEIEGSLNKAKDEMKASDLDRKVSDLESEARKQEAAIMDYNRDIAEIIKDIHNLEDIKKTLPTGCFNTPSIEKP

T2: β3γ2 complex of the recombinant mouse laminin coiled-coil fragments (mouse, UniProt Q61087 945-1168; Q61092 949-1191)
T2 construct: two residues (GlySer) left from the protease recognition site after thrombin cleavage; laminin β3 chain, mouse, residues 945-1168 of the native chain; as m8; laminin γ2 chain, mouse, residues 949-1191 of the native chain; as m10; in the αβγ tests all three chains were mixed, the βγ complex was not isolated beforehand; source: mixture of the purified E. coli fragments; not shown: 6xHis, …
T2 sequence 1: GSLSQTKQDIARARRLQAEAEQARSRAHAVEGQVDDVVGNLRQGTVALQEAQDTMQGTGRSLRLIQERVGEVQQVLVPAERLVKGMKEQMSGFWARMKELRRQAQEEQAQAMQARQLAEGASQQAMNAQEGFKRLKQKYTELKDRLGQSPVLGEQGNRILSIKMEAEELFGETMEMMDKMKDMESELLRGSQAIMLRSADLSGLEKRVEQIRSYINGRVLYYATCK
T2 sequence 2: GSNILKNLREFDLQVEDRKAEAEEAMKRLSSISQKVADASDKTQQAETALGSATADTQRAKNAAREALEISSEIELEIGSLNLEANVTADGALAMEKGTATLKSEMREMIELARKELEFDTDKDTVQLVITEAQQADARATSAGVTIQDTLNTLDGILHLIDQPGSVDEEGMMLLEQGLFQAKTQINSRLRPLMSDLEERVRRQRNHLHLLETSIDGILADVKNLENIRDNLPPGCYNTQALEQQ

T3: β1γ2 complex of the recombinant mouse laminin coiled-coil fragments (mouse, UniProt P02469 1561-1786; Q61092 949-1191)
T3 construct: two residues (GlySer) left from the protease recognition site after thrombin cleavage; laminin β1 chain, mouse, residues 1561-1786 of the native chain; as m6; laminin γ2 chain, mouse, residues 949-1191 of the native chain; as m10; alone a heterotetramer by AUC (most likely two β1 and two γ2 chains); one chain of each in the trimer with α3; in the αβγ tests all three chains were mixed; also called …
T3 sequence 1: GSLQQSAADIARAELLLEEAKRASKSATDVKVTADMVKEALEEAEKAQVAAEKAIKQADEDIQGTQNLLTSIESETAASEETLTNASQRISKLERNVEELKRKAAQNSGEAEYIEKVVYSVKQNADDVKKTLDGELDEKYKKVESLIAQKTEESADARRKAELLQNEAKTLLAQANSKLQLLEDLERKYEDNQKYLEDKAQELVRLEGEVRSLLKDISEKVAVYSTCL
T3 sequence 2: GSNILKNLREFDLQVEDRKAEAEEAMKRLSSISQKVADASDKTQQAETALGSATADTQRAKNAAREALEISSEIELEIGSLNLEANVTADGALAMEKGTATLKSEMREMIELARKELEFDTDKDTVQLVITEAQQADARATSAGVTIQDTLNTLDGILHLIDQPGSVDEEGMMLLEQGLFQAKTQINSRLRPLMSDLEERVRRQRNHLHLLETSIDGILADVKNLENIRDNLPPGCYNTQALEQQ

T4: β1γ1 complex of the recombinant mouse laminin coiled-coil fragments (mouse, UniProt P02469 1561-1786; P02468 1362-1607)
T4 construct: two residues (GlySer) left from the protease recognition site after thrombin cleavage; laminin β1 chain, mouse, residues 1561-1786 of the native chain; as m6; laminin γ1 chain, mouse, residues 1362-1607 of the native chain; as m9; heterodimer by AUC; in the αβγ tests all three chains were mixed, the βγ complex was not isolated beforehand; source: mixture of the purified E. coli fragments; not …
T4 sequence 1: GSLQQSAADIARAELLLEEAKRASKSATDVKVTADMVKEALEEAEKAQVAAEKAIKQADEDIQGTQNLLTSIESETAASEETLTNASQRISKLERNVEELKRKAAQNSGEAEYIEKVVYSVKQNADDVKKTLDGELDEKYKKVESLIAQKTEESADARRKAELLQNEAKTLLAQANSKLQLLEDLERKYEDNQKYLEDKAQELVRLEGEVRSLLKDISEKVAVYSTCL
T4 sequence 2: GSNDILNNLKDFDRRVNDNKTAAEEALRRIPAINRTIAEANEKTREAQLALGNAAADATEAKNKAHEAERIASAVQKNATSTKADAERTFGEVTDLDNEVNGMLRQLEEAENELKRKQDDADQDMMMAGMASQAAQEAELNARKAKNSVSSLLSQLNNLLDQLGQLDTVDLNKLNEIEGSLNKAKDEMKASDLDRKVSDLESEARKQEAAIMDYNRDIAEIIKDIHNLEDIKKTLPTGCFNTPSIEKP

T5: recombinant mouse laminin β1 chain C-terminal coiled-coil fragment (1561–1786) (mouse, UniProt P02469 1561-1786)
T5 construct: two residues (GlySer) left from the protease recognition site after thrombin cleavage; laminin β1 chain, mouse, C-terminal coiled-coil fragment, residues 1561-1786 of the native chain (226 residues); source: E. coli JM109(DE3), purified (Ni2+-Sepharose, denaturing, 8 M urea), 6xHis tag removed by thrombin; not shown: 6xHis, N-terminal, cleaved
T5 sequence: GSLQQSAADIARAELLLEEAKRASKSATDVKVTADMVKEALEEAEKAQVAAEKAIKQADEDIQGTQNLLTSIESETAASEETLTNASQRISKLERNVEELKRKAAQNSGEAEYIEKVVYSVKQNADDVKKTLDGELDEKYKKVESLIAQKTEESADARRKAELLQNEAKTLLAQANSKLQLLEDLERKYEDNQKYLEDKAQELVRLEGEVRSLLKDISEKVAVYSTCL


Tests used:
Settings in all cases: both partners purified
[1] = target: T1, β2γ1 complex of the recombinant mouse …; test: native gel or EMSA; mixtures of one α, one β and one γ chain fragment; 10% non-denaturing PAGE (acid gels for basic complexes); mixtures reduced, heated to 70 °C for 5 min and cooled; run overnight at 50 V, room temperature, no cooling; Coomassie; bands confirmed by in-gel trypsin digestion and mass spectrometry
[2] = target: T2, β3γ2 complex of the recombinant mouse …; test: as above
[3] = target: T3, β1γ2 complex of the recombinant mouse …; test: AUC; sedimentation equilibrium and velocity; 5 mM sodium phosphate, 150 mM NaCl, pH 7.0 (methods) or 7.4 (Table 3); 0.1-0.5 mg/ml
[4] = target: T4, β1γ1 complex of the recombinant mouse …; test: as above
[5] = target: T5, recombinant mouse laminin β1 chain …; test: as above

binding result [1]	binding result [2]	stoichiometry N [3]	stoichiometry N [4]	stoichiometry N [5]	Binder
binds	binds	1	1		recombinant mouse laminin α3 chain C-terminal coiled-coil fragment (2176–2397) (domain or fragment, two residues (GlySer) left from the protease recognition site after thrombin cleavage; laminin α3 chain, mouse, C-terminal coiled-coil fragment, residues 2176-2397 of the native chain (222 residues); the printed numbers fit the long (α3B) form; source: E. coli JM109(DE3), purified (Ni2+-Sepharose, denaturing, 8 M urea), 6xHis tag removed by thrombin; not shown: 6xHis, N-terminal, cleaved; pPEP-T …) GSYENILNAIRAAEDAASKATSASKSAFQTVIKEDLPKRAKTLSSDSEELLNEAKMTQKRLQQVSPALNSLQQTLKTVSVQKDLLDANLTVARDDLHGIQRGDIDSVVIGAKSMVREANGITSEVLDGLNPIQTDLGRIKDSYESARREDFSKALVDANNSVKKLTRKLPDLFIKIESINQQLLPLGNISDNVDRIRELIQQARDAANKVAIPMRFNGKSGVEV
				1	recombinant mouse laminin γ1 chain C-terminal coiled-coil fragment (1362–1607) (domain or fragment, two residues (GlySer) left from the protease recognition site after thrombin cleavage; laminin γ1 chain, mouse, C-terminal coiled-coil fragment, residues 1362-1607 of the native chain (246 residues); source: E. coli JM109(DE3), purified (Ni2+-Sepharose, denaturing, 8 M urea), 6xHis tag removed by thrombin; not shown: 6xHis, N-terminal, cleaved; pPEP-T leader (short C-terminal fragment of the …)) GSNDILNNLKDFDRRVNDNKTAAEEALRRIPAINRTIAEANEKTREAQLALGNAAADATEAKNKAHEAERIASAVQKNATSTKADAERTFGEVTDLDNEVNGMLRQLEEAENELKRKQDDADQDMMMAGMASQAAQEAELNARKAKNSVSSLLSQLNNLLDQLGQLDTVDLNKLNEIEGSLNKAKDEMKASDLDRKVSDLESEARKQEAAIMDYNRDIAEIIKDIHNLEDIKKTLPTGCFNTPSIEKP
